Positions count from the first letter of the chain named. Square brackets hold non-standard residues; d marks the D form. 1Nal = N[C@@H](Cc1cccc2ccccc12)C(=O)O; hArg = N=C(N)NCCCC[C@H](N)C(=O)O; Tic = O=C(O)[C@@H]1Cc2ccccc2CN1; Cit = NC(=O)NCCC[C@H](N)C(=O)O; Nva = CCC[C@H](N)C(=O)O; Aib = CC(C)(N)C(=O)O Some results are limits rather than exact numbers.

The results in this text go back to patent US20080020978A1 (Amgen, published 2008).

To fix the notation:
B1: PEG-peptide of SEQ ID NO 865 (peptide)
peptide: WVTHXLAGLLSRSGGVVRKNFVPTDVGPFAF
modifications: Ac-WVTH[hArg]LAGLLSRSGGVVRKNFVPTDVGPFAF-NH2; PEG-conjugated (Table 2C: in most cases at Lys^25)
B2: PEG-peptide of SEQ ID NO 871 (peptide)
peptide: B1 peptide with R12X, R18X
modifications: Ac-WVTH[Cit]LAGLLS[Cit]SGGVV[hArg]KNFVPTDVGPFAF-NH2; PEG-conjugated (Table 2C: in most cases at Lys^25)
B3: PEG-peptide of SEQ ID NO 866 (peptide)
peptide: B1 peptide with R12X
modifications: Ac-WVTH[hArg]LAGLLS[hArg]SGGVVRKNFVPTDVGPFAF-NH2; PEG-conjugated (Table 2C: in most cases at Lys^25)
B4: PEG-peptide of SEQ ID NO 880 (peptide)
peptide: B1 peptide with R12X, R18X
modifications: Ac-WVTH[Cit]LAGLLS[hArg]SGGVV[hArg]KNFVPTDVGPFAF-NH2; PEG-conjugated (Table 2C: in most cases at Lys^25)
B5: PEG-peptide of SEQ ID NO 874 (peptide)
peptide: B1 peptide with X5R, L6X, S13X
modifications: Ac-WVTHR[NMeLeu]AGLLSR[NMeSer]GGVVRKNFVPTDVGPFAF-NH2; PEG-conjugated (Table 2C: in most cases at Lys^25)
B6: SEQ ID NO 868 (peptide)
peptide: Ac-WVTH[Cit]LAGLLSRPGGVVRKNFVPTDVGPFAF-NH2
SMILES: CC(=O)N[C@@H](Cc1c[nH]c2ccccc12)C(=O)N[C@H](C(=O)N[C@H](C(=O)N[C@@H](Cc1c[nH]cn1)C(=O)N[C@@H](CCCNC(N)=O)C(=O)N[C@@H](CC(C)C)C(=O)N[C@@H](C)C(=O)NCC(=O)N[C@@H](CC(C)C)C(=O)N[C@@H](CC(C)C)C(=O)N[C@@H](CO)C(=O)N[C@@H](CCCNC(=N)N)C(=O)N1CCC[C@H]1C(=O)NCC(=O)NCC(=O)N[C@H](C(=O)N[C@H](C(=O)N[C@@H](CCCNC(=N)N)C(=O)N[C@@H](CCCCN)C(=O)N[C@@H](CC(N)=O)C(=O)N[C@@H](Cc1ccccc1)C(=O)N[C@H](C(=O)N1CCC[C@H]1C(=O)N[C@H](C(=O)N[C@@H](CC(=O)O)C(=O)N[C@H](C(=O)NCC(=O)N1CCC[C@H]1C(=O)N[C@@H](Cc1ccccc1)C(=O)N[C@@H](C)C(=O)N[C@@H](Cc1ccccc1)C(N)=O)C(C)C)[C@@H](C)O)C(C)C)C(C)C)C(C)C)[C@@H](C)O)C(C)C
B7: SEQ ID NO 876 (peptide)
peptide: Ac-WVTHRLAGLLSRSGGVVRKNFV[Tic]TDVGPFAF-NH2
SMILES: CC(=O)N[C@@H](Cc1c[nH]c2ccccc12)C(=O)N[C@H](C(=O)N[C@H](C(=O)N[C@@H](Cc1c[nH]cn1)C(=O)N[C@@H](CCCNC(=N)N)C(=O)N[C@@H](CC(C)C)C(=O)N[C@@H](C)C(=O)NCC(=O)N[C@@H](CC(C)C)C(=O)N[C@@H](CC(C)C)C(=O)N[C@@H](CO)C(=O)N[C@@H](CCCNC(=N)N)C(=O)N[C@@H](CO)C(=O)NCC(=O)NCC(=O)N[C@H](C(=O)N[C@H](C(=O)N[C@@H](CCCNC(=N)N)C(=O)N[C@@H](CCCCN)C(=O)N[C@@H](CC(N)=O)C(=O)N[C@@H](Cc1ccccc1)C(=O)N[C@H](C(=O)N1Cc2ccccc2C[C@H]1C(=O)N[C@H](C(=O)N[C@@H](CC(=O)O)C(=O)N[C@H](C(=O)NCC(=O)N1CCC[C@H]1C(=O)N[C@@H](Cc1ccccc1)C(=O)N[C@@H](C)C(=O)N[C@@H](Cc1ccccc1)C(N)=O)C(C)C)[C@@H](C)O)C(C)C)C(C)C)C(C)C)[C@@H](C)O)C(C)C
B8: SEQ ID NO 869 (peptide)
peptide: Ac-WVTH[Cit]LAGLASRPGGVVRKNFVPTDVGPFAF-NH2
SMILES: CC(=O)N[C@@H](Cc1c[nH]c2ccccc12)C(=O)N[C@H](C(=O)N[C@H](C(=O)N[C@@H](Cc1c[nH]cn1)C(=O)N[C@@H](CCCNC(N)=O)C(=O)N[C@@H](CC(C)C)C(=O)N[C@@H](C)C(=O)NCC(=O)N[C@@H](CC(C)C)C(=O)N[C@@H](C)C(=O)N[C@@H](CO)C(=O)N[C@@H](CCCNC(=N)N)C(=O)N1CCC[C@H]1C(=O)NCC(=O)NCC(=O)N[C@H](C(=O)N[C@H](C(=O)N[C@@H](CCCNC(=N)N)C(=O)N[C@@H](CCCCN)C(=O)N[C@@H](CC(N)=O)C(=O)N[C@@H](Cc1ccccc1)C(=O)N[C@H](C(=O)N1CCC[C@H]1C(=O)N[C@H](C(=O)N[C@@H](CC(=O)O)C(=O)N[C@H](C(=O)NCC(=O)N1CCC[C@H]1C(=O)N[C@@H](Cc1ccccc1)C(=O)N[C@@H](C)C(=O)N[C@@H](Cc1ccccc1)C(N)=O)C(C)C)[C@@H](C)O)C(C)C)C(C)C)C(C)C)[C@@H](C)O)C(C)C
B9: SEQ ID NO 879 (peptide)
peptide: Ac-WVTHRLAGLLSRSGGVVRKNFV[Aib]TDVGPFAF-NH2
SMILES: CC(=O)N[C@@H](Cc1c[nH]c2ccccc12)C(=O)N[C@H](C(=O)N[C@H](C(=O)N[C@@H](Cc1c[nH]cn1)C(=O)N[C@@H](CCCNC(=N)N)C(=O)N[C@@H](CC(C)C)C(=O)N[C@@H](C)C(=O)NCC(=O)N[C@@H](CC(C)C)C(=O)N[C@@H](CC(C)C)C(=O)N[C@@H](CO)C(=O)N[C@@H](CCCNC(=N)N)C(=O)N[C@@H](CO)C(=O)NCC(=O)NCC(=O)N[C@H](C(=O)N[C@H](C(=O)N[C@@H](CCCNC(=N)N)C(=O)N[C@@H](CCCCN)C(=O)N[C@@H](CC(N)=O)C(=O)N[C@@H](Cc1ccccc1)C(=O)N[C@H](C(=O)NC(C)(C)C(=O)N[C@H](C(=O)N[C@@H](CC(=O)O)C(=O)N[C@H](C(=O)NCC(=O)N1CCC[C@H]1C(=O)N[C@@H](Cc1ccccc1)C(=O)N[C@@H](C)C(=O)N[C@@H](Cc1ccccc1)C(N)=O)C(C)C)[C@@H](C)O)C(C)C)C(C)C)C(C)C)[C@@H](C)O)C(C)C
B10: SEQ ID NO 872 (peptide)
peptide: Ac-[1Nal]VTH[Cit]LAGLLS[Cit]SGGVVRKNFVPTDVGPFAF-NH2
SMILES: CC(=O)N[C@@H](Cc1cccc2ccccc12)C(=O)N[C@H](C(=O)N[C@H](C(=O)N[C@@H](Cc1c[nH]cn1)C(=O)N[C@@H](CCCNC(N)=O)C(=O)N[C@@H](CC(C)C)C(=O)N[C@@H](C)C(=O)NCC(=O)N[C@@H](CC(C)C)C(=O)N[C@@H](CC(C)C)C(=O)N[C@@H](CO)C(=O)N[C@@H](CCCNC(N)=O)C(=O)N[C@@H](CO)C(=O)NCC(=O)NCC(=O)N[C@H](C(=O)N[C@H](C(=O)N[C@@H](CCCNC(=N)N)C(=O)N[C@@H](CCCCN)C(=O)N[C@@H](CC(N)=O)C(=O)N[C@@H](Cc1ccccc1)C(=O)N[C@H](C(=O)N1CCC[C@H]1C(=O)N[C@H](C(=O)N[C@@H](CC(=O)O)C(=O)N[C@H](C(=O)NCC(=O)N1CCC[C@H]1C(=O)N[C@@H](Cc1ccccc1)C(=O)N[C@@H](C)C(=O)N[C@@H](Cc1ccccc1)C(N)=O)C(C)C)[C@@H](C)O)C(C)C)C(C)C)C(C)C)[C@@H](C)O)C(C)C
B11: SEQ ID NO 873 (peptide)
peptide: Ac-WVTH[Cit][Nva]AG[Nva][Nva]T[Cit]SGGVVRKNFVPTDVGPFAF-NH2
SMILES: CCC[C@H](NC(=O)CNC(=O)[C@H](C)NC(=O)[C@H](CCC)NC(=O)[C@H](CCCNC(N)=O)NC(=O)[C@H](Cc1c[nH]cn1)NC(=O)[C@@H](NC(=O)[C@@H](NC(=O)[C@H](Cc1c[nH]c2ccccc12)NC(C)=O)C(C)C)[C@@H](C)O)C(=O)N[C@@H](CCC)C(=O)N[C@H](C(=O)N[C@@H](CCCNC(N)=O)C(=O)N[C@@H](CO)C(=O)NCC(=O)NCC(=O)N[C@H](C(=O)N[C@H](C(=O)N[C@@H](CCCNC(=N)N)C(=O)N[C@@H](CCCCN)C(=O)N[C@@H](CC(N)=O)C(=O)N[C@@H](Cc1ccccc1)C(=O)N[C@H](C(=O)N1CCC[C@H]1C(=O)N[C@H](C(=O)N[C@@H](CC(=O)O)C(=O)N[C@H](C(=O)NCC(=O)N1CCC[C@H]1C(=O)N[C@@H](Cc1ccccc1)C(=O)N[C@@H](C)C(=O)N[C@@H](Cc1ccccc1)C(N)=O)C(C)C)[C@@H](C)O)C(C)C)C(C)C)C(C)C)[C@@H](C)O

Chain of CGRP1 receptor (CRLR/RAMP1 complex) of human neuroblastoma SK-N-MC cells (Q16602 23-461, chain 1 of 2): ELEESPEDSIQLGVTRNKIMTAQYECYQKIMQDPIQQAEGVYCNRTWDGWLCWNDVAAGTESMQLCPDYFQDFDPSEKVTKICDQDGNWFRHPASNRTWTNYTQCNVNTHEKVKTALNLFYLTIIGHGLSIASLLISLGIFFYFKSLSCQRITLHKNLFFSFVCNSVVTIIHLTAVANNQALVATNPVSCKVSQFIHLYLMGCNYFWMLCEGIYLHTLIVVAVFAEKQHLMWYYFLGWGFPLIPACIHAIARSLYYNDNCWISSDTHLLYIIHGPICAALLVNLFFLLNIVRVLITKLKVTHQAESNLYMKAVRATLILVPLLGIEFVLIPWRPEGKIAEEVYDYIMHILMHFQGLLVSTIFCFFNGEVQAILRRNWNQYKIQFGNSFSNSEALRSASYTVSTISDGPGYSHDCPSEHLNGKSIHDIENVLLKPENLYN
Chain of CGRP1 receptor (CRLR/RAMP1 complex) of human neuroblastoma SK-N-MC cells (O60894 27-148, chain 2 of 2): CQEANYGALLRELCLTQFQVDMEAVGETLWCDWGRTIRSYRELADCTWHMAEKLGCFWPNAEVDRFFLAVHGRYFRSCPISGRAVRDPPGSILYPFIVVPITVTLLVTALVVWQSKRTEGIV

This assay concerns the target CGRP1 receptor (CRLR/RAMP1 complex) of human neuroblastoma SK-N-MC cells (human, UniProt Q16602 23-461; O60894 27-148). Briefly: cell-based or functional assay.
On to B1, for which the “PEG-peptide IC50” value turned out to be 0.36 nM.
WVTHXLAGLLSXSGGVVRKNFVPTDVGPFAF (Ac-WVTH[hArg]LAGLLS[hArg]SGGVVRKNFVPTDVGPFAF-NH2) [SEQ ID NO 866]: the “Peptide IC50” value worked out at 2.1 nM.
WVTHRXAGLLSRXGGVVRKNFVPTDVGPFAF (Ac-WVTHR[NMeLeu]AGLLSR[NMeSer]GGVVRKNFVPTDVGPFAF-NH2) [SEQ ID NO 874]: the “Peptide IC50” value worked out at 2.92 nM.
The same measure, in the same setting: with WVTHXLAGLLSXSGGVVRKNFVXTDVGPFAF (Ac-WVTH[Cit]LAGLLS[Cit]SGGVVRKNFV[Hyp]TDVGPFAF-NH2) [SEQ ID NO 877] the figure was 1.81 nM.
In the case of B2, the “PEG-peptide IC50” value is 3.22 nM.
With WVTHXLAGLLSXSGGVVRKNFVPTDVGPFAF (Ac-WVTH[NMeArg]LAGLLS[NMeArg]SGGVVRKNFVPTDVGPFAF-NH2) [SEQ ID NO 875], the “Peptide IC50” value came out at 1.63 nM.
As to B3, the “PEG-peptide IC50” value came to 0.37 nM.
Consider WVTHXLAGLLSXSGGVVXKNFVPTDVGPFAF (Ac-WVTH[Cit]LAGLLS[Cit]SGGVV[hArg]KNFVPTDVGPFAF-NH2) [SEQ ID NO 871], for which the “Peptide IC50” value is 0.41 nM.
For the molecule B4, the “PEG-peptide IC50” value came out at 2.06 nM.
On the same count and under the same terms, under B5 stands 208 nM; under Ac-WVTH[Cit]LAGLASRPGGVVRKNFVPTDVGPFAF-NH2 (also: PEG-conjugated, in most cases at Lys25) [PEG-peptide of SEQ ID NO 869], 565 nM.
As for B6, the “Peptide IC50” value stood at 3 nM.
The same measure, in the same setting: under B7 stands 2.33 nM.
Same read-out and setting: under Ac-WVTH[Cit]LAGLAS[Cit]SGGVVRKNFVPTDVGPFAF-NH2 [SEQ ID NO 870] stands 16.1 nM.
For the molecule Ac-WVTH[Cit]LAGLLSRPGGVVRKNFVPTDVGPFAF-NH2 (also: PEG-conjugated, in most cases at Lys25) [PEG-peptide of SEQ ID NO 868], the “PEG-peptide IC50” value was determined as 108 nM.
B8: the “Peptide IC50” value stood at 6.19 nM.
With Ac-WVTH[Cit]LAGLAS[Cit]SGGVVRKNFVPTDVGPFAF-NH2 (also: PEG-conjugated, in most cases at Lys25) [PEG-peptide of SEQ ID NO 870], the “PEG-peptide IC50” value was over 1000 nM.
Same read-out and setting: under Ac-[1Nal]VTH[Cit]LAGLLS[Cit]SGGVVRKNFVPTDVGPFAF-NH2 (also: PEG-conjugated, in most cases at Lys25) [PEG-peptide of SEQ ID NO 872] stands 11 nM.
For the molecule B9, the “Peptide IC50” value was 4.2 nM.
For the molecule Ac-WVTH[Cit]LAGLLSQSGGVV[hArg]KNFVPTDVGPFAF-NH2 (also: PEG-conjugated, in most cases at Lys25) [PEG-peptide of SEQ ID NO 883], the “PEG-peptide IC50” value was found to be 7.42 nM.
As to B10, the “Peptide IC50” value is 1.6 nM.
As to Ac-WVTHQLAGLLS[Cit]SGGVV[hArg]KNFVPTDVGPFAF-NH2 (also: PEG-conjugated, in most cases at Lys25) [PEG-peptide of SEQ ID NO 884], the “PEG-peptide IC50” value came to 8.87 nM.
For B11, the “Peptide IC50” value is 63 nM.
